According to patent publication US20200190159A1:

Experiments:
[1] = target: recombinant tetranectin (TN) (human) (UniProt P05452); experiment: BIAcore SPR; recombinant TN immobilized on the sensor chip, HMGB1 as analyte at 31, 62, 125, 250, 500 and 1000 nM
[2] = target: recombinant tetranectin (TN) (human) (UniProt P05452); experiment: SPR (BIAcore), TN immobilized on CM5 chip, HMGB1 as analyte at various concentrations; apparent Kd

recombinant tetranectin (TN) (human), sequence (P05452 22-202): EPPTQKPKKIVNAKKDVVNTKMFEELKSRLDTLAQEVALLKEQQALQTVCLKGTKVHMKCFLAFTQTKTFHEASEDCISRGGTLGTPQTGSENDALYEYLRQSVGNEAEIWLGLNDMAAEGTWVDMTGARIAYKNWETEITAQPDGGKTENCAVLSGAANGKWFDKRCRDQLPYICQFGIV

Kd [1]: 520 nM
Kd [2]: 570 nM
Substance: high mobility group box-1 (HMGB1) protein
